Data taken from article PMC12575849.

Columns and labels:
CHD1 WT (human) = assay: EMSA; conditions: 5 mM Mg2+, no ATP listed; 10 mM HEPES pH 8.0, 75 mM NaCl, 5 mM MgCl2, 10% glycerol, 1 mM DTT, 0.1 mg/ml BSA; 5 nM nucleosome; 30 min at 30 C; native PAGE
CHD1 deltaNC (human) = assay: EMSA; conditions: 5 mM Mg2+, no ATP listed; 10 mM HEPES pH 8.0, 75 mM NaCl, 5 mM MgCl2, 10% glycerol, 1 mM DTT, 0.1 mg/ml BSA; 5 nM nucleosome; 30 min at 30 C; native PAGE
[1] = biological target: unmodified nucleosome (recombinant human histone octamer on Widom 601 DNA) (human) (UniProt P04908); assay: native gel or EMSA; purified CHD1 titrated against 5 nM IR dye-conjugated nucleosome in EMSA buffer (10 mM HEPES pH 8.0, 75 mM NaCl, 5 mM MgCl2, 10% glycerol, 1 mM DTT, 0.1 mg/ml BSA), 30 min at 30 °C, native PAGE; shifted fraction fitted to a dose-response curve

recombinant CHD1^WT protein, sequence (O14646 whole entry): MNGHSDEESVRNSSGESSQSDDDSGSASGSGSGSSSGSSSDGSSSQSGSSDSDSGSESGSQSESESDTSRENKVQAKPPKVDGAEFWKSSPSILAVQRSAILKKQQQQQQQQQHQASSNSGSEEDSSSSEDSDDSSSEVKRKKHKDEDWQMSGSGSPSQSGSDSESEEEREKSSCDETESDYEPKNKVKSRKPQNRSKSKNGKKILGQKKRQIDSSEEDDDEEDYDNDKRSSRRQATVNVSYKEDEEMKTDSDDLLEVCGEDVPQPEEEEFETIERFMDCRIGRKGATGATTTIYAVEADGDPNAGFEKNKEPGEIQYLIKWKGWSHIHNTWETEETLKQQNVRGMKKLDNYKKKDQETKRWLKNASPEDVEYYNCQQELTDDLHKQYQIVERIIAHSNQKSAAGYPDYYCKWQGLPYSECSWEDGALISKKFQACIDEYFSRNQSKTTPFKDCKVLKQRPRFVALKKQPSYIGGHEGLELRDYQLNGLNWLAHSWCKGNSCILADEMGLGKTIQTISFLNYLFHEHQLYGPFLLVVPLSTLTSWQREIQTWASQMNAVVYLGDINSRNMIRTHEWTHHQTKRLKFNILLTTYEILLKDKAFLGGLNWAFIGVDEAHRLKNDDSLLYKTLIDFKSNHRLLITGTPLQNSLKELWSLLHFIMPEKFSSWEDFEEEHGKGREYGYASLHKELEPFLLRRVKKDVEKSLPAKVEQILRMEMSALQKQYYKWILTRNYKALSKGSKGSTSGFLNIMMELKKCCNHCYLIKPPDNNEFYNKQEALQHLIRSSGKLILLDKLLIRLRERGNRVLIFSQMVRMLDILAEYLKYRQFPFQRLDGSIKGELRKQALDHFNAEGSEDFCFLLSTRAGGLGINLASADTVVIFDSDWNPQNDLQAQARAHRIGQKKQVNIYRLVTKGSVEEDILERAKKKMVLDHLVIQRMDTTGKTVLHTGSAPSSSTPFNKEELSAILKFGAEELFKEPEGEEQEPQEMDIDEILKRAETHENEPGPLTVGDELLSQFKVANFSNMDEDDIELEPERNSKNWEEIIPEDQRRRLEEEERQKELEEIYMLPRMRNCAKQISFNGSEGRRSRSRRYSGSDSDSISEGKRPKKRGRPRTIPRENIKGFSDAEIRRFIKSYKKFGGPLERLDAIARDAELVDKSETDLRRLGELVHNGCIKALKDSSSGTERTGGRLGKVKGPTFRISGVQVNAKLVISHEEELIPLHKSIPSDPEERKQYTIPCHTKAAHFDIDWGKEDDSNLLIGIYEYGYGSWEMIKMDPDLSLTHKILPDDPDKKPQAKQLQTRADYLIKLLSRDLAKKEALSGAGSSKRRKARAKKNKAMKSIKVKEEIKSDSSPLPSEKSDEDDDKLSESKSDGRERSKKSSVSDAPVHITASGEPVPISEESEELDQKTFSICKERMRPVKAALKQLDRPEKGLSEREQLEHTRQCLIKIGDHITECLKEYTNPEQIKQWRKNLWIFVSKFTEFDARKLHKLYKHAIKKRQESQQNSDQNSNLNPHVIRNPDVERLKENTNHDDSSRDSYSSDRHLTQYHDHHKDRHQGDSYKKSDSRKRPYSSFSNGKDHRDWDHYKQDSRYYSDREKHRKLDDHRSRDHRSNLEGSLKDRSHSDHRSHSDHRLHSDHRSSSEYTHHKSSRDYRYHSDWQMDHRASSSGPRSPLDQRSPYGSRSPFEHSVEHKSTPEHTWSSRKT

| Kd [1] | Substance | Kd (CHD1 WT (human)) | Kd (CHD1 deltaNC (human)) |
| --- | --- | --- | --- |
|  | Widom 601 nucleosome (unmodified) | 221 nM | 6.3 nM |
| 221 nM | recombinant CHD1^WT protein (from UniProt O14646 1-1710) (natural protein) |  |  |
